The RNAGym collection of RNA variant scans (doi:10.1073/pnas.2313332121)
Variants at the floor of the assay were thinned out.

B1: TPR 5TU (parent)
chain: GGAUCUUCUCGAUCUAACAAAAAAGACAAAUCUGCCACAAAGCUUGAGAGCAUCUUCGGAUGCAGAGGCGGCAGCCUUCGGUGGCGCGAUAGCGCCAACGUUCUCAACUAUGACACGCAAAACGCGUGCUCCGUUGAAUGGAGUUUAUCAUG

Variants of: B1
Test: polymerase ribozyme fitness, log enrichment relative to wild type (log ratio); higher = more active; in vitro selection for triplet polymerase activity
Procedure, shortened: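 For each subunit of a heterodimeric triplet polymerase ribozyme, a mutant library was built by PCR and transcribed, then taken through a single in vitro selection round in triplicate. Selection involved annealing to a biotinylated primer, the partner subunit and triplets, incubation frozen at −7 °C, gel excision of extended constructs, capture on streptavidin beads and RT-PCR. Genotypes were retained after Illumina sequencing of inputs and outputs only with ≥10 input reads and ≥1 read in each output. Fitness is defined as the logarithm of a genotype's enrichment relative to wild-type enrichment, using inverse-variance-weighted averages across replicates, with the logarithm taken to base 2.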

Variant | polymerase ribozyme fitness (log ratio)
GGAUCUUGUCGAUCUAACAAAAAAGACAAAUCUGCCACAAAGCUUGAGAGCAUCUUCGGAUGCAGAGGCGGCAGCCUUCGGUGGCGCGAUAGCGCCAACGUUCUCAACUAUGACAGGCAAAACGCGUGCUCCGUUGAAUGGAGUUUAUCAUG [C8G C116G] | -3.15
GGAUCUUCUCGAUCUAACAAAAAAGACAAAGCUGCCACAAAGCUUGAGAGCAUCUUCGGAUGCAGAGGCGGCAGCCUUCGGUGGCGCGAUAGCGGCAACGUUCUGAACUAUGACACGCAAAACGCGUGCUCCGUUGAAUGGAGUUUAUCAUG [U31G C95G C105G] | ≤ -4.2
GGAUCUGCUAGAUCUAACAAAAAAGACAAAUCUGCCACAAAGCUUGAGAGAAUCUUCGGAUGCAGAGGCGGCAGCCUUCGGGGGCGCAAUAGCGCCAACGUUCUCAAUUACGACACGCAAAACGCGUGCUCCUUUGAAUGGACUUUAUCAUG [U7G C10A C51A U82G G88A C108U U111C G133U G143C] | ≤ -4.2
GGAUCUUCUCGAUCUAACAAAAAAGACAAAUCUGCCACAAAGCUUGAGAGCAUCUUCGGAUGCAGAGGCGGCAGCCUUCGGUGGCGCGAUAGCGCCAACGUUCUCAACUAUGACACGCAAAACGCGUGCUCCGAUGAAUGGAGUUUAGCAUG [U134A U148G] | ≤ -4.2
GGAUCUUCUCGAUCUAACAAAAAAGACAAAUCUGUCACAAAGCUUCAGAGCAUCUUCGGAUGCAGAGGCGGUAUCCUUCGGUGGCGCGAUAGCGCUAACGUUCUCAGCUAUGACACGCAAAACGCGUGCUCCGUUGAAUGGAGUUUAUCAUG [C35U G46C C72U G74U C96U A107G] | ≤ -4.2
GGAUCUUCUCGAUCUAACAAAAAAGACAAAUCUGCCACAAAGCUUGAGAGCAUCUUCGGAUGCAGAGGCGGCAGCCUUCGGUGGCGCGAUAGCGCCGACGUUCUCAACUAUGACACGCAAAACGCGUGCUCCGUUGAAUGGAAUUUAUCAUG [A97G G143A] | -1.44
GGAUCUUCUCGAUCUAACAAAAAAGUCAAAUCUGCCACAAAGCUUGAGAGCAUCUUCGGAUACAGAGGCGGCAGCCUUCGGUGGCGCGAUAGCGCCAACGUUCUCAACUAUGACACGCAAAACGCGUGCUCCGUUGAAUGGAGUUUAUCAUG [A26U G62A] | -1.51
GGAUCUUCUCGAUCUAACACAAAAGACAAAUCUGCCACAAAGCUUGAGAGCAUCUUCGGAUGCAGAGGCGGCAGCCUUCGGUGGUGCGAUAGCGCCAACGUUCUCAACUAUGACUCGCAAAACGCGUGCUCCGUUGAAUGGAGUUUAUCAUG [A20C C85U A115U] | -1.06
GGAUCUUCUCGAUCUAACAAAAAAGACAAAUCUGCCACAAAGCUUGAGAGCAUCUUCGGAUGCAGAGGCGGCAGCCUUCGGUGACGCGAUAGUGCCAACGUUCUCAAGUAUGACACGCAAAACGCGUGCUCCGUUGUAUGGAGUUUAUCAUG [G84A C93U C108G A137U] | ≤ -4.2
GGAUCUUCUCGAUCUAACAAAAAAGACUAAUCUGCCCCAAAGCUUGAGAGCAUCUUCGGAUGCAGAGGCGGCAGCCUUCGGUGGCGAGAUAGCGCCAACGUUCUCAACUAUGACACACAAAACGCGUGCUCCGUUGAAUCGAGUUUAUCAUG [A28U A37C C87A G117A G140C] | ≤ -4.2
GGAUCUUCUCGAUCUAACAAAAAAGACAAAUCUGCCACAAAGCUUGAGAGCAUCUUCGGAUGCAGAGGCGGCAGCCUUCGGUGGGGCGAUAGCGCCAACGUUCUCGACUAUGACACGCAAAACGCGUGCUCCGUUGAAUGGAGUUUAUCAUG [C85G A106G] | -2.59
GGAUCUUCUCGAUCUAACAAAAAAGACAAAUCUGCCACAAAGCUUGAGAUUAUCUUCUGAUGCAGAGGCGGCAGCCUUCGGUGGCGCGAUAGCGCCAACGUUCUCAAGUAUGACACGCAAAAGGCGUGCUCCGUUGAAUGGAGUUUAUCAUG [G50U C51U G58U C108G C123G] | ≤ -4.2
GGAUCUUCUAGAUCUAACAAAAAAGACAAAUCUGCCACAAAGCUUGAGAGCAUCUUCGGAUGCAGAGGCGGCAGCGUUCGAUGGCUCGAUAGCGCCAACGUUCUCAACUAUGACACGCAAAACGCGUGCUCCGUUGUAUGGAGUUUAUCAUG [C10A C76G G81A G86U A137U] | ≤ -4.2
GGAUCUUCUCGAUCUAACAAAAAAGACAAAUCUGCCACAAAGCUUGAGAGCCUCUUUGGAUGCAGAGGCGGCAGCCUUCGCUGGCGCGAUAGCGCCAACGUUCUCAACUAUGACACGCAAAACGCGUGCUCCGUUGAAUGGAGUUUAUCAUG [A52C C57U G81C] | -1.59
GGAUCUUCUCGAUCUAACAAAAAAGACAAAUCUGCCACAAAGCUUGAGAGCAUCUUCGGAUGCAGAGGAGGCAGCAUUCGGUGGCGCGAUAGCGCCAACGUUCUCAACCAUGACACGCAAAACGCGUGCUCCGUUGAAUGGAGUUUAUCAUG [C69A C76A U109C] | ≤ -4.2
GGAUCUUCUCGAUCUAACAAAAAAGACAAAUCGGCCACAAAGCUUGCGAGCAUCUACGGAUGCAGAGGCGGCGGCCUUCGGUUGCGCGAUAGCGCCAAAGUUCUCAACUAUGACACGCAAAACGCGUGCUCCGUUGAAUGGAGUUUAUCAUG [U33G A47C U56A A73G G83U C99A] | -4.05
GGAUCUUCUCGAUCUAACCAAAAAGACAAAUCUGCCACAAAGCUUGAGAGCAUCUUAGGAUGCAGAGGCGGCAGCCUUCGGUGGCGCGAUAGCGCCAACGUUCUCAACUAUGACACGCGAAACGCGUACUCCGUUGAAUGGAGUUUAUCAUG [A19C C57A A119G G128A] | -4.12
GGACCUUCUCGGUCUAACAAAAAAGACAAAUCUGCCACAAAGCUUGAGAGCAUCUUCGGAUGCAGAGGCGGCGGCCUUCGGUGGCGCGAUAGUGCCAACGUUCUCAACUAUGACACGCAAAACGCGUGCUCCGUUGAAUGGAGUUUAUCAUA [U4C A12G A73G C93U G152A] | -3.07
GGAUCUUCUCGAUCUAACAAAAAAGACGUAUCUGCCACAAAGCUUGAGAGCAUCUUCGGAUGCAGAGGCGGCAGCCUUCGGUGGCGGGAUAGCGCAAACGUUCUCAACUAUGACACGCAAAACGCGUGCUCCGUUGAAUGGAGUUUAUCAUG [A28G A29U C87G C96A] | ≤ -4.2
